# Experimental data taken from the nanobody polyreactivity screen of Harvey et al. (2022).
# Experiment: yeast display, Sf9 membrane polyspecificity reagent, FACS + sequencing; frameworks hold sequencing errors
# Method in brief: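 Using colony PCR, genes from sorted yeast display clones were amplified, then sequenced on MiSeq at 2 × 250 and filtered by CDR length. The clones had been stained with 10% biotinylated, detergent-solubilized Sf9 membrane reagent for 1 hour at 4 °C and sorted by FACS into low and high (top ~1%) gates on anti-HA and streptavidin fluorescence. Polyreactivity labels come from the gate of origin.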
row,Sequence,polyreactivity (PSR sort gate)
1,QVQLVESGGGLVQAGGSLRLSCAASGSIFYYNPMGWYRQAPGKERELVATISGRGGSTYYADSVKGRFTISRDNAKNTVYLQMNILKPEDTAVYYCNTVPSHHRHTKYDYWGQGTQVTVSS,low polyreactivity
2,QVQLVESGGGLVQAGGSLRLSCAASGSIFYYNSMGWYRKAPGKEREFVAAISARGGSTYYADSVKGRFTISRDNAKNTVYLQLNSLKPEDSAVYYCAASWGMGTYSDSTFWGGYYYWGQGTQVTVSS,low polyreactivity
3,QVQLVESGGGLVQAGGSLRLSCAASGSIFYYYAMGWDRQAPGKERELVAGITGSGGRTYYADSVKGRFTISRDNAKNTVYLQMNSLKPEDTAVYYCAATRRDSTGSLYYYWGQGTQVTVSS,high polyreactivity
4,QVQLVESGGGLVQAGGSLRLSCAASGSIFYYYAMGWYRQAPGKERELVAAIDFGGGSTYYADSVKGRFTISRDNEKNTVYLQMNSLKPEDTAVYYCAARTFKDAGTAYGSWGQGTQETVSS,high polyreactivity
5,QVQLVESGGGLVQAGGSLRLSCAASGSIFYYYAMGWYRQAPGKERELVAAISGTGGSTYYADSVKGRFSISRDNAKNTVYLQMNSLKPEDTAVYYCAASFYIERHRYNYWGQGTQVTVSS,high polyreactivity
6,QVQLVESGGGLVQAGGSLRLSCAASGSIFYYYAMGWYRQAPGKERELVAAISRSGGSTYYADSVKGRFTISRDNAKNTVYVQMNSLKRDDTAVYYCAAQSRYWTYDYWGQGTQVTVSS,high polyreactivity
7,QVQLVESGGGLVQAGGSLRLSCAASGSIFYYYAMGWYRQAPGKERELVAAITRSGNTYYADSVKGRFTISRDNAKNTVYLQMNSLKPEDTAVYYCAAEYGGGYGWGQGTQVTVSS,high polyreactivity
8,QVQLVESGGGLVQAGGSLRLSCAASGSIFYYYAMGWYRQAPGKERELVAAITRSVSRTYYADSVKGRFTISRDNAKNTVYLQMNYLKPEVTAVYYCNVVGSSETSTVYYCGQGTQVTVSS,high polyreactivity
9,QVQLVESGGGLVQAGGSLRLSCAASGSIFYYYAMGWYRQAPGKERELVARITFSGGDTYYADSVKGRFTISRDNAKNTVYLQMNSLKPEDSAVYYCAAYCSYFFAWLDSYRDDYDYWGQGTQVTVSS,low polyreactivity
10,QVQLVESGGGLVQAGGSLRLSCAASGSIFYYYAMGWYRQAPGKERELVASITRGGSTYYADSVKGRFTISRDNAKNTVYLQMNSLKPEDTAVYYCNADLGAYVPFDYWGQGTQVTVSS,high polyreactivity
11,QVQLVESGGGLVQAGGSLRLSCAASGSIFYYYAMGWYRQAPGKERELVATISSGGGSTYYADSVKGRFTISRDNAKNTVYLQMNSLKPEDTAVYYCAKRRWRSYYDSWGQGTQVTVSS,low polyreactivity
12,QVQLVESGGGLVQAGGSLRLSCAASGSIFYYYAMGWYRQAPGTERELVAAIYNGGSTYYADSVKGRFTISRDNAKNTVYLQMNSLKPEDTAVYYCNAGYSYWYRDLGYDSWGQGTQVTVSS,low polyreactivity
13,QVQLVESGGGLVQAGGSLRLSCAASGSIFYYYDMGWYRQAPGKERELVAAIRGSGGSTYYADSVKGRFTISRDNAKNTVYLQMNSLKPEDTAVYYCAAEFGDQRFYRQYVRRDHWGQGTQVTVSS,low polyreactivity
14,QVQLVESGGGLVQAGGSLRLSCAASGSIFYYYGMGWYRQAPGKESDLVARISKSVGRTYYADSVKGRFTISRDNAKNTVYLQMNSLKPEDTAVYYCAASRSFQGNRYDYWGQGTQVTVSS,high polyreactivity
15,QVQLVESGGGLVQAGGSLRLSCAASGSIFYYYSMGWYRQAPGKERELVARITSGGSTKYADSVKGRFTISRDNAKYTVYLQMNSLKPEDTAVYYCAARYQYNYWGTYGSWGQGTQVTVSS,high polyreactivity
16,QVQLVESGGGLVQAGGSLRLSCAASGSIFYYYTMGWYRQAHGKESEFVATMTYSGGSTYYADSVKGRFTISRDNAKNTVYLQMNSLKPEDTAVYYCNARPRYYDWVDYWGQGTQVTVSS,low polyreactivity
17,QVQLVESGGGLVQAGGSLRLSCAASGSIFYYYVMGWYIQAPGKERELVAAISSGGGTNYADSVKGRFTISRDNAKNSVYLQMNSLNPEDTAVYYGAKASAYGLANDYDYWGQGTQVTVSS,low polyreactivity
18,QVQLVESGGGLVQAGGSLRLSCAASGSIIAGYTMGWYRQAPGKERELVAGIRRGGSTNYADSVKGRFTISRDNAKNTVYLQMNSLKPEDTAVYYCNAQRTRSYVLRTFDYWGQGTQVTVSS,high polyreactivity
19,QVQLVESGGGLVQAGGSLRLSCAASGSIIATNAMGWYRQAPGKERELVAAISRSAGRTYYADSVKGRFTISRDNAKNTVYLQMNRLKPDDTAVYYCNAVFPGVTNQMDYWGQGTQVTVSS,high polyreactivity
20,QVQLVESGGGLVQAGGSLRLSCAASGSIIDANAMGWYRQAPGKERELVAAITSGDSTYYADSVKGRFTISRDNAKNTVYLQMNSLKPEDTAVYYCAADPVWHYYRMDYWGQGTQVTVSS,low polyreactivity
21,QVQLVESGGGLVQAGGSLRLSCAASGSIIDRNAMGWYRQAPGKERELVAAITSGGSTYYADSVKGRFTISRDNAKHTDYLKLNSLKPEDTAVYYCNADTDPPVPLYYWGQGSQVTVSS,low polyreactivity
22,QVQLVESGGGLVQAGGSLRLSCAASGSIIDYYAMGWYRPAPGKERELVAAISESSDSTYYADSVKGRFTISRDNAKNTVYLQMNSLTPEDTAVYYCAADSLTPKSASDYWGQGTQVTVSS,low polyreactivity

row,Sequence,polyreactivity (PSR sort gate)
1,QVQLVESGGGLVQAGGSLRLSCAASGSIIDYYAMGWYRQAPGKERELVAAISSSVGITYYADSVKGRFTISRDNAKNTVYLQMNSLKPEDTAVYYCAADLYGWYFYNQEYDSWGQGTQVTVSS,low polyreactivity
2,QVQLVESGGGLVQAGGSLRLSCAASGSIIFSYAMGWYRQAPGKEREFVAAITGSGGSTYYADSVKGRFTISRDNAKNTVYLQMNSLKPEDTAVYYCARPQWRDWYGYWGQGTQVTVSS,low polyreactivity
3,QVQLVESGGGLVQAGGSLRLSCAASGSIIGDNTMGWYRQAPGKERELVATIRKNGASTTYADSVKGRFTISRDNAKNTVYLQMNSLKPEDTAVYYCARDHHTKYNYWGQGTQVTVSS,low polyreactivity
4,QVQLVESGGGLVQAGGSLRLSCAASGSIIGIYAMGWYRQAPGKERELVAAISWSGGSTYYADSVKGRFTISRDNAKNTVYLQMNSLKPEDTAVYYCNAYPAYLDDYWGQGTQVTVSS,low polyreactivity
5,QVQLVESGGGLVQAGGSLRLSCAASGSIIGNYAMGWYREAPGKERELVAAISWSGGSTYYADSVKGRFTISRDNAKNTVYLQMNSLKPEDTAVYYCAAVDYYRYRSDYDYWGQGTQVTVSS,low polyreactivity
6,QVQLVESGGGLVQAGGSLRLSCAASGSIIGSYAMGWYRQAPGKERELVAAINSGGSTNYADSVKGRFTISRDNAKNTVYLQMNSLKPEDTAVYYCASRQVYKFRRYDYWGQGTQVTVSS,high polyreactivity
7,QVQLVESGGGLVQAGGSLRLSCAASGSIIGSYAMGWYRQAPGKERELVAAISKSGGSTYYADSVKGRFTISRDNAKNTVYLQMNSLKPEDTAVYYCAARAYRYAYRAYDYWGQGTQVTVSS,high polyreactivity
8,QVQLVESGGGLVQAGGSLRLSCAASGSIIHPYTMGWYRPAPGKERELVAGISESSDSTYYADSVKGRFTISRDNAKNTVYLQMNSLKPEYTAVYYCNRDHDWPLSVLEVDYWGQGTQVTVSS,low polyreactivity
9,QVQLVESGGGLVQAGGSLRLSCAASGSIIHTNTMGWYRQAPGKERELVAAISGGSTYYADSVKGRFTISRDNAKNTVYLQMNSLKPEDTAVYYCAAGWSVWYQDFDYWGQGSQVTVSS,high polyreactivity
10,QVQLVESGGGLVQAGGSLRLSCAASGSIIKYYAMGWYRQAPGKEREFVAAITASSSRTYYADSVKGRFTISRDNAKNKVYLQMNSLKPEDTAVYYCAAVGPGRRRDYWGQGTQVTVSS,high polyreactivity
11,QVQLVESGGGLVQAGGSLRLSCAASGSIILGYAMGWYRQAPGKERELVAAIRRSSAGTYYADSVKGRFTISRDNAKNTVYLQMISLKPEDTAVYYCAWYPATYRWAYYYWGQGTQVTVSS,high polyreactivity
12,QVQLVESGGGLVQAGGSLRLSCAASGSIINRYAKGWYRQAPGKERELVAAITQSGGRTYYADSVKGRFTISRDNAKNTVYLQMNSLNPEDTAVYYCNAVRWYLYDYWGQGTQVTVSS,high polyreactivity
13,QVQLVESGGGLVQAGGSLRLSCAASGSIIPGYTMGWYRQAPGKERELVAAISRRGGSTYYADSVKGRFTISRDNAKNTVYLQMNSLKPEDTAVYYCAASLWYRISKYDYWGQGTQVTVSS,high polyreactivity
14,QVQLVESGGGLVQAGGSLRLSCAASGSIIPRNVMGWYRQAPGNERELVAAISRSGGSTSYADSVKGRFTISRDNAKNTVYLQMNSLKPEDTAVYYCKAPWQRYSAPWGQGYNYWGQGTQVTVSS,high polyreactivity
15,QVQLVESGGGLVQAGGSLRLSCAASGSIIPSYSMGWYRQAPGKERDLVATIGRGGTTNYADSVKGRFTISLDNAKNTVYLQMNSLKPEDTAVYYCYAERIWRYKYGYDYWGQGSQVTVSS,high polyreactivity
16,QVQLVESGGGLVQAGGSLRLSCAASGSIIPVYAMGWDRQAPGKVRQLVAAISSRGGRTYYADSVKGRFKISRDNAKNTVYLQMNSLKPEDTAVYYCASVYATYYRLPSQYDYWGQGTQVTVSS,low polyreactivity
17,QVQLVESGGGLVQAGGSLRLSCAASGSIIRKYAMGCYRPAPGKERELVAAITSGGRTYYADSVKGRFTISRDNAKNTVYLQMNSLKPEDTAVYYCNARVRGYYEYNYWGQGTQVTVSS,high polyreactivity
18,QVQLVESGGGLVQAGGSLRLSCAASGSIIRKYAMGWYRQAHGKERELVAAISRRTGNTYYADSVKGRFTISRDNAKNTVYLQMNSLKPEDTAVYYCAADYYSSSSWSEVDSWGQGTQVTVSS,high polyreactivity
19,QVQLVESGGGLVQAGGSLRLSCAASGSIISFYAMGWYRQAPGKEREMVAVISDIGGSTYYADSVKGRFTISRDNAKNTDYLEMNSLKPEDTAVYYCAAGCHARTWYAYYYWGQGTQVTVSS,low polyreactivity
20,QVQLVESGGGLVQAGGSLRLSCAASGSIISGNVMGWYRQAPGKEREFVATISWRGGNTYYADSVKGRFTISRDNAKNTVYLQMNSLKPEETAVYDCATRRLYSKSWYYYWGQGTQVTVSS,high polyreactivity
21,QVQLVESGGGLVQAGGSLRLSCAASGSIISPNAMGWYRQAPGKERELVATISFSGGRTYYADSVKGLVTISRDNAKNTVYLQMNSLKPEDTAVYYCAKAYYYTDMDYWGQGTQVTVSS,low polyreactivity
